Experiment: yeast display, Sf9 membrane polyspecificity reagent, FACS + sequencing; frameworks hold sequencing errors
In short: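 Sorting gates, low and high (top ~1%), were placed on anti-HA fluorescence to track expression and on streptavidin fluorescence to track reagent binding. A clone's polyreactivity label is taken from the gate it came out of. The reagent was 10% biotinylated, detergent-solubilized Sf9 membrane, applied for 1 hour at 4 °C to galactose-induced yeast display cells.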

## QVQLVESGGGLVQAGGSLRLSCADSGFTFLSNVMGWYRQAPGKERELDAAINYSGDGTYYADSVKGRFTISRDNAKNTVYLQMNSLKPEDSAVYYCAADVEYYRDVPPQVYVSDDYWGQGTQVTVSS
  polyreactivity (PSR sort gate): low polyreactivity

## QVQLVESGGGLVQAGGSLRLSCAASGLTFAYYVMGSYRQAPWKERELVAAISRRGGSTYYADSVKGRFTISRDNAKNTVYLQMNSLKPEDTAVYYCNTDWPLPNGGEPGYWGQGTQVTVSS
  polyreactivity (PSR sort gate): high polyreactivity

## QVQLVESGGGLVQAGGSLRLSCAASGSIFGYYVMGWYRQAPGKERELVAAITRSGSTYYADSVKGRFTISRDNAKNTVYLQMNSLKPEDTAVYYCAADGSYYWYPHTTYDYWGQGTQVTVSS
  polyreactivity (PSR sort gate): low polyreactivity

## QVQLQESGGGLVQAGGSLRLSCAVSGTIFFPQDKGWYRQAPGREREYGAAIAEGTSTYYADSVKGRFTISRDNAKNTVYPQMYSLKPEDTEVNYCAAYRSTPQQFLYWGQGTQVTVSS
  polyreactivity (PSR sort gate): high polyreactivity

## QVQIVESGGGLDQAGGSLRLSCAASGSTFVLNPMGWYRQAPGKERGMVAAISSGGRTYYADSVKGRFTISRDNAKNTVYLQMNSLKPEDTAVYYCAANPYRGGHGTLFGYWGQGSQVTVSS
  polyreactivity (PSR sort gate): high polyreactivity

## QVQLVESGGGLVQAGGSLRLSCAASGSTSVYAMGWYRQAPGKERELVAAITRGGSTYYADSVKGRFTISRDNAKNTVYLQMNRLKPEDTAVYYCAVETYYSIFDIYDYWGQGTQVTVSS
  polyreactivity (PSR sort gate): low polyreactivity

## QVQLVESGGGLVQAGGSLRLSCAASGLIFPFYTMGWYRQAPGKERELVAAISYSGGSTYYADSVKGRFAISRDNAKNTVYLQMNSLKPEDTAVYYCAKSYRTTYHFWSGYDYWGQGTQVTVSS
  polyreactivity (PSR sort gate): low polyreactivity

## QVQLVESGGGLVQAGGSLRLSCDASGLTFTRNAMGWYRPAPGKERELVAAITSTGSTNYADSVKGRFTISRDNAKNTVYLQMNSLKPEDTAVYYCNARNAYYDDNYWGQGTQVTVSS
  polyreactivity (PSR sort gate): low polyreactivity

## QVQLVESGGGLVQAGASLRLSCAASGFTFGTYVMGWYRQAPGKERELVARITYGGGRTYYADSVKGRFTISRDNAKNTVYLQMNSLNPEDTAVYYSNARVTYSRYFKGYNYWGQGTQVTVSS
  polyreactivity (PSR sort gate): high polyreactivity

## QVQLVESGGGLVQAGGSLRLSCAASGFIFDGYAMGWYSQAPGKERELVAAIDSGGDRTYYADSVKGRFTISRDNAKNTVYLQMNSLKPEDTAVYYCAADSSDPTGYDYWGQGTQVTVSS
  polyreactivity (PSR sort gate): low polyreactivity

## QVQLVESGGGLVQAGGSLRLSCAASGRIFGGYTMGWYRQAPGKEREFVAAITSSGGSTYYADSVKGRFTISRDNAKNTVYLQMYSLKPEETAVYYCAVDDYYYDYDYWGQGTQVTVSS
  polyreactivity (PSR sort gate): low polyreactivity

## QVQLVQSGGGLVHAGGSLRLSCAASGRIFGINAMGWYIQAPGKERELVAAINWSGGSTYYADSVKGRFTISRDNAKNTVYLQMNSLKPEDTAVYYCADQKYQRVGYWGQGTQVTVSS
  polyreactivity (PSR sort gate): high polyreactivity

## QVQLVESGGRLVQAGGSLRLSCHASGIIFTAYAMGWYRPAPGKERELVAAITWSGGSTYYADSVKGRFTISRDNAKNTVYLQMNSLKPEDTAVYYCNGERPSFPFNYWGQGTQVTVSS
  polyreactivity (PSR sort gate): low polyreactivity

## QVQLVESGGGLVQAGGSLRLSCAASVRIFATNAMGWSRQAPGKERELVARISRRGGSTNYADSVKGRFTISRDNAKNTVYLQMNSLKPEDTAVYYCNVSFYWYRWYALLDYWGQVTQVTVSS
  polyreactivity (PSR sort gate): high polyreactivity

## QVQHVESRGGLVQAGGSLRLSCAASGFILYLNAMGWYRQAPGKERELVAAITSDGGSTYYADSVKGRFTISRDNAKNTVYLQMNSLKPEDTAVYYCAADNYPDEYDYWGQGTQVTVSS
  polyreactivity (PSR sort gate): low polyreactivity

## QVQLVESGGGLVQAGGSLRLSCAASGLTFHSNDMGRYRQAPWKETEFVAAITSGGNTYYADSVKGRFTISRDNAKNTVYLPMNSLKPEDTAVYYCNADYQDEEDDYWGQGTQVTVSS
  polyreactivity (PSR sort gate): low polyreactivity

## QVQLVESGGGLVQAGGSLRLSCAASGRTFKYYAMGWYRQAPGKERELVAGITSGSSTSYADSVKGRFTISRDNAKITVYLQMNSLKPEDTAVYFCAAGIYQYRYDYWGQGTQVTVSS
  polyreactivity (PSR sort gate): high polyreactivity

## QVQLVESGGGLVQAGGSLRLSCAASGRIFARYAMGWYRQAPGKQRELVAAITVSGDNTYYADSVKGRFTISRDNAKNTVYLQMNSLKPEDTAVYYCAVRAVLLFGFFDYDYWGQGTQLTVSS
  polyreactivity (PSR sort gate): low polyreactivity

## QVQLVESGGGLVQAGGSLRLSCAASGSTHGYAMGWYRQAPGKERELVAAISLNTGSTYYADSVKGRFTIARDNAKNTVYFQMNSLKPEYTAVYYCNADDYTYATYEYDYWGQGTLVTVSS
  polyreactivity (PSR sort gate): low polyreactivity

## QVQLVESGGGLVQAGGSLRLSCADSGRIFQPNVMGWYRQAPGKERELVAAIRSGSSTYYADSVKGRFTISRDNAKNTVYLQMNSLKPEDTAVYYCATRRAGRGYDYWGQGTQVTVSS
  polyreactivity (PSR sort gate): high polyreactivity

## QVQLVESGGGLVQAGGSLRLSCAASGRTFGTNTMGWYRQAPGKEREFVATITSSGGSTYYADSVKGRFTISRDNAKNTVYVQINSLKPEATAVYYCATDPYGGNTLYPSLRYDYWGQGTQVTVSS
  polyreactivity (PSR sort gate): low polyreactivity

## QVPLVESGGGLVQAGGRLRLRCAASAFTFDSYAMGWNRQAPGKERELVAAITWSGGSTYSADSVKGRFTISRDNAKNTVYLQMNSLQPEDTAVYYCNVYRYDGDYWGQGTQVPVSS
  polyreactivity (PSR sort gate): high polyreactivity

## QVQLVESGGGLVQAGGSLRLSCAASGSNFLYNAMGWYRQAPGKERELVAAITQGGGSTYYADSVKGRFTISLDIAKNTVYLQMISLKPEDTAVYYCNKASFYDAHRLDYWGQGTQVTVSS
  polyreactivity (PSR sort gate): high polyreactivity

## QVQLVESGGGLVQAGGSHRLSCAASGSIFGVYVMGWYRQAPGKERELVAAITRGASTNYADSVKGRFTISRDNAKNSVYLQMNSLKPEDTAVYYCAARQVSVSGHQYGYWGQGSQVTVSS
  polyreactivity (PSR sort gate): low polyreactivity

## QVQLVESGGGLVQAGASLRLSCAASGRIFGRNAMGWYRQAPGKERELVAAISSGSGSTYYADSVKGRFTISRDNAKHTVYLQLNSLIPEDTAVYYCAATVSTYLAWRGYWGQGTQVTVSS
  polyreactivity (PSR sort gate): high polyreactivity

## QVQLVESGGGLVQAGGSLRLSCAASGSTFDGYAMGWYRQAPGKERELVAAISRSGGRTYYADSVKGRFTISRDNAKNTVYLQMNSLKPEDTAVYYCAALYPYKREDYWGQGTQVTVSS
  polyreactivity (PSR sort gate): high polyreactivity

## QVQLVESGGGLVQAGGSLRLSCAASGSIFYYYAMGWSRQAPGKEREFVAAIRESGGSTYYADSVKGSFTISRDNAKNTVYLQMNSLKAEDTAVYYCAVRRPRRNYNYPYDYWGQGTQVTVSS
  polyreactivity (PSR sort gate): low polyreactivity

## QVQLVESGGGLVQAGGSLRLISAASGRTFYSYAMGWYRQATGKERELVASISSGGGTNYADSVKGRFTSSRDNAMNTVYLQMNSLKPEDTAVYYGAAKYWFFYPYDYWGQGTQVTVSS
  polyreactivity (PSR sort gate): low polyreactivity

## QVQLVESGGGLVQAGGSLRLSCAASGRTFYYYTMGWYRQAPGKERELVAAISVSGGSTYYADSVKGRFTISRDNAKNTVYLQMNSLKPEDTAVYYCAAGDGWGRRYYWGQGTQVTVSS
  polyreactivity (PSR sort gate): high polyreactivity

## QVQLVESGGGIVQAGGRLRISCAASGFSFRKYAMGWSRQAPGKEREFVASISSTGARTYYADSVKGRFTISRDNAKNTVYLQMTSLKPEDTAVYYCAAAYGRYYYTYDYWGLGTQVTVSS
  polyreactivity (PSR sort gate): high polyreactivity

## QVQLVESGGGLVQAGGSLRLSCAASGFIFSNNAMGWYIEAPGKERELVAVINGGGSTYYADSVKGRFTISRDNAKNTVYLQMNSLKPEDTAVYYCARKSWPKEGRVDPGYDYWGQGTQVTVSS
  polyreactivity (PSR sort gate): low polyreactivity

## QVQLVESGGGLFQEGGSLRLSCAPCGLIFFSYAMGWYRQAPGTERELVAAISRLGGRTYYADSVKGRFTISRDNAKNTVYLQMNSLKPEDTAVYYCATRVWTPIFGYEYWGQGTQVTVSS
  polyreactivity (PSR sort gate): low polyreactivity

## QVQLVESGGGLVQAGGSLRLSCAASGITFYYYAMGWYTQAPGKERELVAAISDNGSRTYYADSVKGRFTISRDNAQNTVYLQMNSLKPEDTAVYYCAAEGSYGYDYWGQGTQVTVSS
  polyreactivity (PSR sort gate): high polyreactivity

## QVQLVESGGGIVQAGGSLRLSCAASGLTFWYYAMGGYRQAPGKVRELVARITRSGVGTYYADSVKGRFTISRDNAKNTVYLQMNSLKPEDTAVYYCAARYWVSGFRAGYYWGQGTQVTVSS
  polyreactivity (PSR sort gate): high polyreactivity

## QDQLVESGGGLVQAGGSLRLSCAASGRTFTHYALGWYRQAPGKERELVAAISWSGGITYYADSVKGRFTISRDYAKNTVYLQMNSLKPEDTAVYYCAAEHYFSGYYYWGQGTQVTVSS
  polyreactivity (PSR sort gate): high polyreactivity

## PVQLVESGGGLVQAGGSLRLSCAASGFTFSYNDMGWYRQAPGKERELVAAITSTGGTYYADSVKGRFTISRDNAKNTVYLQMNSLKPEDTAVYYCAADRIGGPGSYLYDYWGQGTQVTVSS
  polyreactivity (PSR sort gate): low polyreactivity

## QVQLVESGGRLVQAGGSLRLSCAASGSNSFRYAIGWDRQAPGKERELVARISSGGSTNYADSVKGRFTISRDNAKNTVYLQMNRLKPEDTAVYYCAKSFRYSVYPYSHYDYWGQGTQVTVSS
  polyreactivity (PSR sort gate): high polyreactivity

## QVQLVESGGGLVQAGGSLRLSCAASGSTFYGNAMAWYRQAPGKEREFVAAISSGGRTYYADSVKGRFTISRDNAKNTVYLQMNSLKPEDTAVYYCAVRRSAFYARFGRNYWGQGTQVTVSS
  polyreactivity (PSR sort gate): low polyreactivity

## QVQLVESGGGLVQAGGSLRLSCAASGFIFNRYAMGWYRQAPGKERELVAGITSSGGSTYYADSVKGRFTISRDNAKNTVYLQMNSLKPEDTAVYYCNADSWLYRFFGYDYWGQGTQVTVSS
  polyreactivity (PSR sort gate): low polyreactivity

## QVQLVESGGGLVQAGGSLRLSCAASGSIFGPNAMGWYRQAPGKERELGAAISWRGGSTYYADSVKGRFTISRDTAKNTVYLQMNSLKPEDTAVYYCNKYLTWAEGLPGYDYWGQGTQVTVSS
  polyreactivity (PSR sort gate): high polyreactivity

## QVQLVESGGGLVQAGGSLRLSCAASGYTFRYYAMGWYRQAPGKERELVAAISRSGGSTYYADSVKGRFTISRDNAKNTVSLQMNSLKPEDTAVYYCAVALARPYEDYDYWGQGTQVTVSS
  polyreactivity (PSR sort gate): high polyreactivity

## QVQLVESGGGLVQAGGSLRLSCAASGSISYVNAMGWYRQAPGKERELVAAITGGGSTNYADSVKGRFTISRDNAKNTVYLQMNSLKPEDTAVYYCNSGDSTGEVIGDYWGQGTQVTVSS
  polyreactivity (PSR sort gate): low polyreactivity

## QVKLVESGGGLVQAGGSLRLSCADSGRIFYIYAMGWYRQSPGKERELVAAISSGGTTNYADSVKGRLTISRDNAKNTVYLQMNSLKPEDTAVYYCACYWRSRNRFYWGQGTQVTVSS
  polyreactivity (PSR sort gate): high polyreactivity
